Kd data for 2 sequences are collected here from US20220073920.

As usually defined, the Kd is a measure of binding affinity in units of concentration.

In series [1] the test system is Human adenovirus type 2 whole virion (HAdV-2) (Human adenovirus 2). To be noted: ELASA; DPBS + 3 mM MgCl2 + 20 mM NaCl (printed NaCl2), pH 7.4, room temperature; n=6.
The test system is the same in series [2]. The settings on record: ELASA; DPBS + 3 mM MgCl2 + 20 mM NaCl (printed NaCl2), pH 7.4, room temperature; n=7.

Like-named read-outs stand apart in the source and are kept apart here.

As to “GTGCCAGCTATGCCATTGGGGGACAATATCGCAGTGCATCTTCCTCTAGCGTCTATCTCTGCTGC [aptamer 10]”, in series [1], the Kd was found to be 0.0036 µM.

In the case of “GTGCCAGCTATGCCATTGGGCGGGTCGTCCAATTCGAGAGGTCCCCTAGCGTCTATCTCTGCTGC [aptamer 20]”, in series [2], the Kd came to 0.0759 µM.
